# Measurements from patent US20170306031A1 (NGM BIOPHARMACEUTICALS, published 2017).
# Read-outs that look alike come from different tables or passages of the source.
# T1: human GFRAL (analyte in Biacore assays) (human, UniProt Q6UXV0 19-351, limits assumed)
# T1 construct: injected in solution over captured antibody; also called hGFRAL
# T1 sequence: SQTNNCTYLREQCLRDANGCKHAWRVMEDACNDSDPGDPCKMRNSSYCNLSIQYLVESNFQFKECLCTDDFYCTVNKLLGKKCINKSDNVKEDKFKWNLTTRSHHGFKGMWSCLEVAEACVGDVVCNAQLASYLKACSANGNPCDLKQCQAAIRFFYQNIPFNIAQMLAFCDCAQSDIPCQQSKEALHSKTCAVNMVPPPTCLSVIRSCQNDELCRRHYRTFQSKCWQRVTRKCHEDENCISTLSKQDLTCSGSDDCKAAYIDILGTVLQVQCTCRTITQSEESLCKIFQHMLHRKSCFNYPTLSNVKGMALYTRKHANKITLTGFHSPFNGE
# T2: mouse GFRAL (analyte in Biacore assays) (mouse, UniProt Q6SJE0 20-349, limits assumed)
# T2 construct: injected in solution over captured antibody
# T2 sequence: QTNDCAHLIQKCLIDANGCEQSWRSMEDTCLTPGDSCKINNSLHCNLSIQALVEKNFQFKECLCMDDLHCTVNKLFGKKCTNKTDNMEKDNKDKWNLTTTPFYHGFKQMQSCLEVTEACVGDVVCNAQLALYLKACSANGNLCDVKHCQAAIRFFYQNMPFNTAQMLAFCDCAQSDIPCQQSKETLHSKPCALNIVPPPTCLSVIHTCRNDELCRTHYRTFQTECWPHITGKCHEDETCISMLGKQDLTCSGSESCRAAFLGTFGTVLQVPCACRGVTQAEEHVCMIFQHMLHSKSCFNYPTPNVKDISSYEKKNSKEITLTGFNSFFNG
# T3: human GFRAL expressed on cells (human, UniProt Q6UXV0 20-394)
# T3 sequence: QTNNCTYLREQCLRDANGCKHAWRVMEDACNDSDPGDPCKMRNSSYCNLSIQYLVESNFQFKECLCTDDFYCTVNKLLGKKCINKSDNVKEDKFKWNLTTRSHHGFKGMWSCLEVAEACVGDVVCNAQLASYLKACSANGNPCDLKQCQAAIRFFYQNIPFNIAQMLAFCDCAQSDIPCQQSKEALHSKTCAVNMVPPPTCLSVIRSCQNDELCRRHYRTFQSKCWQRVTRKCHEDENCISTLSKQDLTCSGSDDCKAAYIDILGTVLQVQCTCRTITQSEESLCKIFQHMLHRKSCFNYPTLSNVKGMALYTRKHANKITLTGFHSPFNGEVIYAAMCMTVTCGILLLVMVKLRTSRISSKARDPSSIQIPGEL
# T4: mouse GFRAL expressed on cells (mouse, UniProt Q6SJE0 20-393)
# T4 sequence: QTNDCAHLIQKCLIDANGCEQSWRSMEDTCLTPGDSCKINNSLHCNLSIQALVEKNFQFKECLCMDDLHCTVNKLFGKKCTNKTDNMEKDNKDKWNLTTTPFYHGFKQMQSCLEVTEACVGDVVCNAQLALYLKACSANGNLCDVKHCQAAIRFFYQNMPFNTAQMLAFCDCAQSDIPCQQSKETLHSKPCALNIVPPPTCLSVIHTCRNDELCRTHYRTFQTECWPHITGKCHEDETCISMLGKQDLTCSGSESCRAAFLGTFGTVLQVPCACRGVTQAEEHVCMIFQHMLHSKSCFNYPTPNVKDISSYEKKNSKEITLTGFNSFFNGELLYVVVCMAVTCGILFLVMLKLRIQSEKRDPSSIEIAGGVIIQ
# What was measured:
# [1] = molecular target: T1, human GFRAL (analyte in Biacore assays); assay: Biacore SPR, antibody captured, GFRAL injected
# Method: (§1) In addition, the binding affinity of antibodies to human and mouse GFRAL were measured. For example, antibodies were rank ordered based on their binding affinity to human GFRAL and mouse GFRAL by low resolution KD measurement by Biacore. Briefly, an anti-mouse Fc antibody (Sigma-Aldrich, St. Louis, Mo.) was immobilized on all four flow cells of a CM5 chip using amine coupling reagents (GE Healthcare LifeSciences, Piscataway, N.J.). Purified antibodies were captured (˜100 RUs) on flow cells 2, 3 and 4 using flow cell 1 as a reference. This was followed by injection of human or mouse GFRAL (25 nM in PBS-P buffer) at a flow rate of 70 μL/m in and monitoring the binding kinetics at 25° C.
# (§2) Binding affinity measurements were also made in additional Biacore based assays. For example, equilibrium dissociation constant (KD) measurements were carried out with purified antibodies to evaluate their binding to human GFRAL or mouse GFRAL. As mentioned above, anti-mouse Fc antibody (Sigma-Aldrich, St. Louis, Mo.) was immobilized on all four flow cells of a CM5 chip using amine coupling reagents (GE Healthcare LifeSciences, Piscataway, N.J.). Purified antibodies were captured (˜100 RUs) on flow cells 2, 3 and 4 using flow cell 1 as a reference. This was followed by injection of human or mouse GFRAL in PBS-P buffer) at a flow rate of 70 μL/min and the binding kinetics were evaluated at 25° C.
# [2] = molecular target: T2, mouse GFRAL (analyte in Biacore assays); assay: Biacore SPR, antibody captured, GFRAL injected
# Method: as §1, §2
# [3] = molecular target: T3, human GFRAL expressed on cells; assay: cell-based or functional assay
# [4] = molecular target: T3, human GFRAL expressed on cells; assay: cell-based or functional assay; remark: listed apart in the source
# [5] = molecular target: T4, mouse GFRAL expressed on cells; assay: cell-based or functional assay
# [6] = molecular target: T3, human GFRAL expressed on cells; assay: cell-based or functional assay; remark: listed apart in the source
# [7] = molecular target: T1, human GFRAL (analyte in Biacore assays); assay: Biacore SPR, antibody captured, human GFRAL injected
# Method: Exemplary humanized anti-GFRAL antibodies identified in Example 6 were assayed for their binding affinity to human GFRAL. Binding affinity measurements were made in Biacore based assays. For example, equilibrium dissociation constant (KD) measurements were carried out with purified antibodies to evaluate their binding to human GFRAL. Using methods described in Example II, anti-mouse Fc antibody (Sigma-Aldrich, St. Louis, Mo.) was immobilized on all four flow cells of a CM5 chip using amine coupling reagents (GE Healthcare LifeSciences, Piscataway, N.J.). Purified humanized anti-GFRAL antibodies were captured (˜100 RUs) on flow cells 2, 3 and 4 using flow cell 1 as a reference. This was followed by injection of human GFRAL in PBS-P buffer) at a flow rate of 70 μL/min and the binding kinetics were evaluated at 25° C.
Binder,"IC50, ELK1-luciferase reporter (hGFRAL/hRET) [6]",Kd [7],also measured
"antibody designated 5A20 (antibody, V domains shown, mouse hybridoma monoclonal) VH: QVQLQQSGPELMKPGASVILSCKAIGYTFTDYWIEWVKERPGHGLEWIGEILLGSDSIHFNEKFKGKATISADTSSNTAYMQLSSLTTEDSAIYYCVRQDWNWYFDVWGTGTTVTVSS VL: not shown",–,–,"Kd [1]: 0.081 nM; koff [1]: 3.32e-05 s⁻¹; Kd [2]: < 0.1 nM; koff [2]: 0.0004 s⁻¹; IC50, ERK phosphorylation in U2OS hGFRAL/hRET cells [3]: 1.8 nM; IC50, ELK1-luciferase reporter (hGFRAL/hRET) [4]: 3.19 nM; IC50, ELK1-luciferase reporter (mGFRAL/mRET) [5]: 0.6 nM"
"antibody designated 17J16 (antibody, V domains shown, mouse hybridoma monoclonal) VH: QVQLQQSGAELAKPGASVKMSCKTSGYTFTDYWIHWVKQRPGQGLEWIGYINPNSNYAEYNQKFKVKATLTADKSSSTAYLQLSRLTSEDSAVYYCARFDWNWYFHVWGAGSTVTVSS VL: DVALTQIPLTLSVTVGQPASISCKSSQSLSDSDGKTYLNWLLQKPGQSPKRLIYLVSRLGSGVPDRFTGSGSGADFTLKISRVEAEDLGVYYCWQGTHFPQTFGGGTKLEIK",–,–,"Kd [1]: < 0.1 nM; koff [1]: ~1e-05 s⁻¹; Kd [2]: < 0.1 nM; koff [2]: 1e-05 s⁻¹; IC50, ERK phosphorylation in U2OS hGFRAL/hRET cells [3]: 0.1 nM; IC50, ELK1-luciferase reporter (hGFRAL/hRET) [4]: 0.666 nM; IC50, ELK1-luciferase reporter (mGFRAL/mRET) [5]: 0.407 nM"
"humanized anti-GFRAL antibody HC-375d/LC-375a (antibody, V domains shown, humanized 5F12) VH: QVQLVQSGAEVKKPGSSVKVSCKASGYTFTDYYINWVRQAPGQGLEWIGRIYPGNGNTYHNEKFKGRATLTADKSTSTAYMELSSLRSEDTAVYYCAREGLYYDYDRYFDYWGQGTLVTVSS VL: DIVMTQSPDSLAVSLGERATINCRASESVDTYGNSFMHWYQQKPGQPPKLLIYLASNLESGVPDRFSGSGSGTDFTLTISSLQAEDVAVYYCHQNNEDPPAFGGGTKVEIK",3.86 nM,0.074 nM,–
"humanized anti-GFRAL antibody HC-375d/LC-375g (antibody, IgG1, V domains shown, humanized 5F12) VH: QVQLVQSGAEVKKPGSSVKVSCKASGYTFTDYYINWVRQAPGQGLEWIGRIYPGNGNTYHNEKFKGRATLTADKSTSTAYMELSSLRSEDTAVYYCAREGLYYDYDRYFDYWGQGTLVTVSS VL: DIVLTQSPDSLAVSLGERATINCRASESVDTYGNSFMHWYQQKPGQPPKLLIYLASNLESGVPDRFSGSGSRTDFTLTISSLQAEDVAVYYCHQNNEDPPAFGGGTKVEIK",2.79 nM,0.077 nM,–
"humanized anti-GFRAL antibody HC-375e/LC-375a (antibody, V domains shown, humanized 5F12) VH: QVQLVQSGAEVKKPGSSVKVSCKASGYTFTDYYINWVRQAPGQGLEWMGRIYPGNGNTYHNEKFKGRATLTADESTSTAYMELSSLRSEDTAVYYCAREGLYYDYDRYFDYWGQGTLVTVSS VL: DIVMTQSPDSLAVSLGERATINCRASESVDTYGNSFMHWYQQKPGQPPKLLIYLASNLESGVPDRFSGSGSGTDFTLTISSLQAEDVAVYYCHQNNEDPPAFGGGTKVEIK",2.81 nM,0.091 nM,–
"humanized anti-GFRAL antibody HC-375e/LC-375g (antibody, IgG1, V domains shown, humanized 5F12) VH: QVQLVQSGAEVKKPGSSVKVSCKASGYTFTDYYINWVRQAPGQGLEWMGRIYPGNGNTYHNEKFKGRATLTADESTSTAYMELSSLRSEDTAVYYCAREGLYYDYDRYFDYWGQGTLVTVSS VL: DIVLTQSPDSLAVSLGERATINCRASESVDTYGNSFMHWYQQKPGQPPKLLIYLASNLESGVPDRFSGSGSRTDFTLTISSLQAEDVAVYYCHQNNEDPPAFGGGTKVEIK",2.27 nM,0.081 nM,–
"humanized anti-GFRAL antibody HC-375d/LC-375c (antibody, IgG1, V domains shown, humanized 5F12) VH: QVQLVQSGAEVKKPGSSVKVSCKASGYTFTDYYINWVRQAPGQGLEWIGRIYPGNGNTYHNEKFKGRATLTADKSTSTAYMELSSLRSEDTAVYYCAREGLYYDYDRYFDYWGQGTLVTVSS VL: DIQMTQSPSSLSASVGDRVTITCRASESVDTYGNSFMHWYQQKPGKAPKLLIYLASNLESGVPSRFSGSGSGTDFTLTISSLQPEDFATYYCHQNNEDPPAFGGGTKVEIK",3.28 nM,0.075 nM,–
"humanized anti-GFRAL antibody HC-375e/LC-375c (antibody, IgG1, V domains shown, humanized 5F12) VH: QVQLVQSGAEVKKPGSSVKVSCKASGYTFTDYYINWVRQAPGQGLEWMGRIYPGNGNTYHNEKFKGRATLTADESTSTAYMELSSLRSEDTAVYYCAREGLYYDYDRYFDYWGQGTLVTVSS VL: DIQMTQSPSSLSASVGDRVTITCRASESVDTYGNSFMHWYQQKPGKAPKLLIYLASNLESGVPSRFSGSGSGTDFTLTISSLQPEDFATYYCHQNNEDPPAFGGGTKVEIK",2.2 nM,0.092 nM,–
"humanized anti-GFRAL antibody HC-375d/LC-375j (antibody, IgG1, V domains shown, humanized 5F12) VH: QVQLVQSGAEVKKPGSSVKVSCKASGYTFTDYYINWVRQAPGQGLEWIGRIYPGNGNTYHNEKFKGRATLTADKSTSTAYMELSSLRSEDTAVYYCAREGLYYDYDRYFDYWGQGTLVTVSS VL: DIVLTQSPLSLPVTLGQPASISCRASESVDTYGNSFMHWYQQRPGQSPRLLIYLASNLESGVPDRFSGSGSRTDFTLKISRVEAEDVGVYYCHQNNEDPPAFGGGTKVEIK",3.11 nM,0.046 nM,–
"humanized anti-GFRAL antibody HC-375d/LC-375i (antibody, IgG1, V domains shown, humanized 5F12) VH: QVQLVQSGAEVKKPGSSVKVSCKASGYTFTDYYINWVRQAPGQGLEWIGRIYPGNGNTYHNEKFKGRATLTADKSTSTAYMELSSLRSEDTAVYYCAREGLYYDYDRYFDYWGQGTLVTVSS VL: DVVLTQSPLSLPVTLGQPASISCRASESVDTYGNSFMHWFQQRPGQSPRLLIYLASNLESGVPDRFSGSGSGTDFTLKISRVEAEDVGVYYCHQNNEDPPAFGGGTKVEIK",2.75 nM,0.062 nM,–
"humanized anti-GFRAL antibody HC-375e/LC-375j (antibody, IgG1, V domains shown, humanized 5F12) VH: QVQLVQSGAEVKKPGSSVKVSCKASGYTFTDYYINWVRQAPGQGLEWMGRIYPGNGNTYHNEKFKGRATLTADESTSTAYMELSSLRSEDTAVYYCAREGLYYDYDRYFDYWGQGTLVTVSS VL: DIVLTQSPLSLPVTLGQPASISCRASESVDTYGNSFMHWYQQRPGQSPRLLIYLASNLESGVPDRFSGSGSRTDFTLKISRVEAEDVGVYYCHQNNEDPPAFGGGTKVEIK",4.01 nM,0.048 nM,–
